Experimental data taken from patent US20130035289A1, “PHARMACEUTICAL COMPOSITION FOR TREATMENT OF THROMBOSIS-RELATED DISEASES COMPRISING A FRAGMENT OF PROLACTIN (PRL)-GROWTH HORMONE (GH)-PLACENTAL LACTOGEN (PL)-FAMILY PROTEIN” (UNIVERSITE DE LIEGE, priority 2010, published 2013).

Columns and labels:
PAI-1 [1] = molecular target: T1, PAI-1 (Homo sapiens, UniProt P05121); assay: Casein zymography of plasmin generation by uPA in presence of PAI-1; type: biochemical
T1 construct: gift of Pr; P. Declerck
Procedure: (a) Proteolytic activity of uPA on plasminogen (Plg) in different conditions was determined by colorimetric assay (absorbance at 405 nm) as described in Methods. […] The data represent the means±SD of duplicate samples and experiment was repeated at least three times. (b) Casein zymography showing Plg and plasmin (Pln) generation by uPA in the presence of PAI-1 alone or in combination with 14K GH or 22K GH.
For this test casein (1 mg/ml) was incorporated in 10% SDS polyacrylamide gels. Aliquots of in vitro reaction including recombinant proteins were mixed with loading buffer (10% SDS, 4% Sucrose, 0.25M Tris-Hcl pH6-8, 0.1% Bromophenol blue). After electrophoresis, SDS was removed from the gel by two washes (30 min each) of 100 mM glycine, 2.5% Triton buffer (pH 8.0) stained with 0.1% coomassie brilliant bleu, and destained in 20% methanol/10% acetic acid.

PAI-1 [2] = molecular target: T1, PAI-1; assay: Inhibition of PAI-1 anti-proteolytic activity, uPA/plasminogen chromogenic (colorimetric) assay; type: biochemical; details: for PAI-1 activity in vitro (chromogenic assay): yes/no, table title: Peptide fragments inhibiting PAI-1
Procedure: The main physiological function of PAI-1 is to inhibit uPA and tPA proteolytic activity. […] A chromogenic substrate for plasmin (Spectrozyme PL: 0.5 mM. American Diagnostica INC) in PBS was added to the mixture in 96-well microtitration plates and kept at room temperature. The release of free p-nitro-aniline from the chromogenic substrate was measured spectrophotometrically. The activity of plasmin was determined as the absorbance at 405 nm.

PAI-1 [3] = molecular target: T1, PAI-1; assay: In vitro clot lysis assay in pooled normal human plasma with added PAI-1 and tPA; type: biochemical; details: peptides 25 μM, human plasma; for ablility to induce clot lysis: yes/no, added PAI-1, tPA
Procedure: Clot lysis was performed as follows: pooled normal plasma were used in citrated tube. Recombinant wild type PAI-1 was incubated in the presence or in the absence of 16K hPRL (3 μM), 14K hGH (3 μM) or different peptides (25 μM) for 10 min at 37° C., before to be added to diluted plasma in tris tween buffer (75 μl of plasma in 200 μl of 10 mM TRIS pH 7.5, 0.01% tween 20), followed by a second incubation for 10 min at 37° C. tPA was added to each tube at the end to reach a final volume of […]. Aliquots from each tube (80 μl) were added in duplicate to 96 wells, each containing 20 μl CaCl2 to give the following final concentration per well of 10 mM. Clot formation and dissolution were monitored at RT measuring turbidity at 405 nm in 5 min intervals.

PAI-1 [4] = molecular target: T2, PAI-1 (Mus musculus, UniProt P22777); assay: Murine thromboembolism model (tPA/thromboplastin); type: in vivo; details: POPRL 7-12 10 mg/kg i.v. 5 min before t-PA/thromboplastin; control 50; p=0.3
T2 construct: from tissue; host or cells: BalbC Njrj mice, in vivo (blood)
T2 sequence (P22777 23-402): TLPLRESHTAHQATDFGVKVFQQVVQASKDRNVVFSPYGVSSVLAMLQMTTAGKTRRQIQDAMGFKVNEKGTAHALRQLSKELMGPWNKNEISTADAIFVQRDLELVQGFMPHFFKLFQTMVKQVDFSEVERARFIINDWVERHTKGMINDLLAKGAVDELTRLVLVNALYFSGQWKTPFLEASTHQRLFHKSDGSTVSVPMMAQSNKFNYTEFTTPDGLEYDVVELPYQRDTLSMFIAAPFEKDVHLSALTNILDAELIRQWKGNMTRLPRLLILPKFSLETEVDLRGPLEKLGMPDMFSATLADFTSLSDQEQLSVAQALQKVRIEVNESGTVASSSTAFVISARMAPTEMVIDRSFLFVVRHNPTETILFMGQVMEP
Procedure: BalbC Njrj Mice were used and anesthetised with ketamine/xylazine throughout the whole experiment. Recombinant 16K PRL and adenovirus vectors 16K-Ad and Null-Ad were produced as described above. The animal experiment protocol used was approved by the Institutional Ethics Committee of the University of Liege.
Recombinant 16K PRL (1 mg/kg) or POPRL 7-12 (10 mg/kg) were administrated via the vein to BalbC Njrj mice of approximately 15-18 g. Five minutes after the injection, a suboptimal concentration of t-PA (0.1 mg/kg) was injected immediately followed by i.v. injection of thromboplastin (3.3 μg/kg) to evoke thromboembolism. Mice were evaluated after 15 min for survival. For experiment with adenovirus vectors, mice were injected into the tail vein with 10^9 pfu of 16K hPRL adenovirus (16K-Ad) and their corresponding control (Null-Ad) 5 days before the injection a suboptimal concentration of t-PA (0.1 mg/kg) injected immediately followed by i.v. injection of thromboplastin (3.3 μg/kg).
The fisher test was used to determine the significance of the differences in the mortality assays.

T1 sequence (P05121 24-402): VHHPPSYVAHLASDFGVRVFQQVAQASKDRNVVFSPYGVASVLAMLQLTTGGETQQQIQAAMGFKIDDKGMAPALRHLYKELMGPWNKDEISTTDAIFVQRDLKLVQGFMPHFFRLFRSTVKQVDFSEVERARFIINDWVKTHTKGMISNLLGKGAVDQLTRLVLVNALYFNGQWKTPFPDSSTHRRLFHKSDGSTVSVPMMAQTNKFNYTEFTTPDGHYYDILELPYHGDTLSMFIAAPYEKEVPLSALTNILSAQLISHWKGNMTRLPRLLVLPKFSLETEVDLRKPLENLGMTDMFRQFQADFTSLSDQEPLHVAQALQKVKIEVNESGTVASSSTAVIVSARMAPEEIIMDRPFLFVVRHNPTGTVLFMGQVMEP

Substance | inhibition of plasmin (Pln) generation in the presence of PAI-1 (PAI-1 [1]) | inhibition of PAI-1 function to inhibit uPA and tPA proteolytic activity (PAI-1 [2]; uPA, bovine plasminogen, PAI-1, absorbance 405 nm) | ablility to induce clot lysis (PAI-1 [3]) | PAI-1 activity in vitro (chromogenic assay) (PAI-1 [2]) | mortality (PAI-1 [4]) [%] | clot lysis in the presence of added PAI-1 (PAI-1 [3])
22K GH: the full fragment (full-length) growth hormone [reference compound] | no effect | did not show any inhibition | – | – | – | –
FLSLIV [POPRL 1-6] | – | – | yes | yes | – | –
IQSWLE [POGH 9-14] | – | – | yes | yes | – | –
IVSILR [POPRL 5-10] | – | – | yes | yes | – | –
LLRISL [POGH 1-6] | – | – | yes | yes | – | –
LLRISLLLIQSWLE [POGH] | – | – | yes | yes | – | –
LSQILSSLIQSWLE [POGHmut, reference compound] | – | – | no | no | – | –
RISLLL [POGH 3-8] | – | – | yes | yes | – | –
SILRSW [POPRL 7-12] | – | – | yes | yes | 30 | –
SLLLIQ [POGH 5-10] | – | – | yes | yes | – | as effective as the tilted peptide of GH: POGH
